# Experimental data from publication PMC6179904 (Developmental Cell, 2018).
# Where no end group is shown, it is not given here. The star is where a group is joined. Fluorescin = fluorescein label at the C-terminus, before the amide; Myristoyl = CCCCCCCCCCCCCC(=O)*
# Target: full-length UNC119A (UniProt Q13432 1-240)
# Assay: fluorescence polarisation
row,Binder,Kd
1,"Myristoyl-GSNKSKPKDASQ (also: fluorescein label, position not given here) [c-SRC (Myr-GSNKSKPKDASQ) fluorescein-labeled myristoylated peptide]",125 ± 69 nM
2,Myristoyl-GNLESAEGVPGE-{Fluorescin-NH2} [fluorescein-labeled myristoylated FMNL3 peptide (Myr-GNLESAEGVPGE-Fluorescin-amide)],856 ± 156 nM
3,Myristoyl-GNAAGSAEQPAG-{Fluorescin-NH2} [fluorescein-labeled myristoylated FMNL1 peptide (Myr-GNAAGSAEQPAG-Fluorescin-amide)],10.1 ± 3.5 nM
